According to PMC9785301:

Biological target: AjFER-D129A/E132A mutant (Apostichopus japonicus)
Assay: crystal structure; M3 at approx. 15 mg/mL in 25 mM Tris-HCl, pH 8.0, 150 mM NaCl; crystals from 0.05 M cadmium sulfate hydrate, 0.1 M HEPES, pH 7.5, 1.0 M sodium acetate trihydrate, 18 °C; assembly of subunits into the cage

stoichiometry N: 24
Substance: AjFER-D129A/E132A mutant
